Experimental data as given in article PMC6358605.

Target: BiP NBD (28–413) (Chinese hamster) (UniProt G3I8R9)
Sequence (G3I8R9 28-413): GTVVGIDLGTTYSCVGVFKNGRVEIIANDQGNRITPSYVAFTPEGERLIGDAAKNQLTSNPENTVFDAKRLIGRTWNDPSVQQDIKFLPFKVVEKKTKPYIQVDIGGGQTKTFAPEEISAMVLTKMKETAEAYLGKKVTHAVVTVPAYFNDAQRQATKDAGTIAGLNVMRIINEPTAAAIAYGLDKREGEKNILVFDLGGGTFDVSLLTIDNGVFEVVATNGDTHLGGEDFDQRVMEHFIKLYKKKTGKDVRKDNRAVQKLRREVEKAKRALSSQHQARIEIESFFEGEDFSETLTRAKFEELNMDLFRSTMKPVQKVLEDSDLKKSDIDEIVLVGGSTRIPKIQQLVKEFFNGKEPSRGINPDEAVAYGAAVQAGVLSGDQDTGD

- inhibition of MABA-ADP release, concentration-dependent (Supplementary Fig. 4a, b): 26.5 µM
Substance: Full-length mouse MANF (wild-type) (from UniProt Q9CXI5 22-179) (natural protein)
